Assay results as given in publication PMC11210774, “Critical domains for NACC2-NTRK2 fusion protein activation” (PLOS ONE, 2024).
One block for each molecule: values may come before it.

Assays:
NACC2(D31N/R45Q)-NTRK2 [1] = target: NACC2(D31N/R45Q)-NTRK2 (UniProt Q96BF6); assay: non-reducing SDS-PAGE and immunoblot of multimers; HEK293T lysates in E1A buffer (250 mM NaCl, 50 mM HEPES, 5 mM EDTA, 0.1% NP-40); non-reducing sample buffer (4% SDS, 10 mM NaPO4 pH 7.0); immunoblot for NACC2 or NTRK2; multimer/monomer band ratio by ImageJ, three replicates
NACC2(Y86A)-NTRK2 [2] = target: NACC2(Y86A)-NTRK2 (UniProt Q96BF6); assay: as above
[3] = target: NACC2-NTRK2(ex4:ex13) fusion protein (UniProt Q96BF6); assay: as above
NACC2(Y86A)-NTRK2 [4] = target: NACC2(Y86A)-NTRK2 (UniProt Q96BF6); assay: co-IP; fusion protein co-expressed with NACC2 in HEK293T; E1A buffer; immunoprecipitation with antibodies against NTRK2 and Protein A-Sepharose at 4°C, immunoblot for NACC2; ratio of NACC2 to the co-immunoprecipitated fusion by ImageJ
NACC2(D31N/R45Q)-NTRK2 [5] = target: NACC2(D31N/R45Q)-NTRK2 (UniProt Q96BF6); assay: as above
[6] = target: NACC2-NTRK2(ex4:ex13) fusion protein (UniProt Q96BF6); assay: as above
[7] = target: the molecule itself; assay: non-reducing SDS-PAGE and immunoblot of multimers; HEK293T lysates in E1A buffer (250 mM NaCl, 50 mM HEPES, 5 mM EDTA, 0.1% NP-40); non-reducing sample buffer (4% SDS, 10 mM NaPO4 pH 7.0); immunoblot for NACC2 or NTRK2; multimer/monomer band ratio by ImageJ, three replicates

ratio of the multimer band to the monomer band (NACC2(D31N/R45Q)-NTRK2 [1]): 18%
Molecule: NACC2(D31N/R45Q)-NTRK2 (from UniProt Q96BF6 1-418; Q16620 397-822)

ratio of the multimer band to the monomer band (NACC2(Y86A)-NTRK2 [2]): 12%
Molecule: NACC2(Y86A)-NTRK2 (from UniProt Q96BF6 1-418; Q16620 397-822)

ratio of the multimer band to the monomer band [3]: 44%
Molecule: NACC2-NTRK2(ex4:ex13) fusion protein (from UniProt Q96BF6 1-418; Q16620 397-822)

ratio of NACC2 to the NACC2-NTRK2 fusion with which it was co-immunoprecipitated (NACC2(Y86A)-NTRK2 [4]): 15% | ratio of NACC2 to the NACC2-NTRK2 fusion with which it was co-immunoprecipitated (NACC2(D31N/R45Q)-NTRK2 [5]): 45% | ratio of NACC2 to the NACC2-NTRK2 fusion with which it was co-immunoprecipitated [6]: 72%
B1: Nucleus Accumbens-associated protein 2 (NACC2), wild type (natural protein, human, UniProt Q96BF6 1-587, looked up)
chain: MSQMLHIEIPNFGNTVLGCLNEQRLLGLYCDVSIVVKGQAFKAHRAVLAASSLYFRDLFSGNSKSAFELPGSVPPACFQQILSFCYTGRLTMTASEQLVVMYTAGFLQIQHIVERGTDLMFKVSSPHCDSQTAVIEDAGSEPQSPCNQLQPAAAAAAPYVVSPSVPIPLLTRVKHEAMELPPAGPGLAPKRPLETGPRDGVAVAAGAAVAAGTAPLKLPRVSYYGVPSLATLIPGIQQMPYPQGERTSPGASSLPTTDSPTSYHNEEDEEDDEAYDTMVEEQYGQMYIKASGSYAVQEKPEPVPLESRSCVLIRRDLVALPASLISQIGYRCHPKLYSEGDPGEKLELVAGSGVYITRGQLMNCHLCAGVKHKVLLRRLLATFFDRNTLANSCGTGIRSSTSDPSRKPLDSRVLNAVKLYCQNFAPSFKESEMNVIAADMCTNARRVRKRWLPKIKSMLPEGVEMYRTVMGSAAASVPLDPEFPPAAAQVFEQRIYAERRGDAATIVALRTDAVNVDLSAAANPAFDAGEEVDGAGSVIQEVAAPEPLPADGQSPPQPFEQGGGGPSRPQTPAAAARRPEGTYAGTL
notes: NACC2, human, wild type; gene bought from Origene and subcloned into pCDNA3 by EcoRI and XbaI; Expressed alone (multimerization assay) or together with the fusion proteins (co-IP); also called wild-type NACC2; native NACC2; source: HEK293T, transfected (pCDNA3, CaCl2), in lysate (E1A buffer)
ratio of the multimer band to the monomer band [7]: 7%
